Experimental data: paper PMC6155069, “Cryo-EM analysis of the T3S injectisome reveals the structure of the needle and open secretin” (Nature Communications, 2018)

B1: PrgK (inner membrane ring protein) in the purified needle complex (natural protein)
chain: CKDKDLLKGLDQEQANEVIAVLQMHNIEANKIDSGKLGYSITVAEPDFTAAVYWIKTYQLPPRPRVEIAQMFPADSLVSSPRAEKARLYSAIEQRLEQSLQTMEGVLSARVHISYDIDAGENGRPPKPVHLSALAVYERGSPLAHQISDIKRFLKNSFADVDYDNISVVLSERSDAQLQAPGTPVKRNSFATSWIVLIILLSVMSAGFGVWYYKNHYARNKKGITADDKAKSSNE
notes: PrgK, Salmonella Typhimurium SPI-1 type III secretion system, native protein in the needle complex; Native protein stood in the sample; only 20-203 was modelled; also called PrgK_(20–203); IM rings; source: endogenous, ΔflhD Salmonella SL1344 with HilA on a pBAD plasmid; needle complex purified (LDAO lysis, centrifugation, CsCl gradient, Superose 6); copies: 24
B2: PrgH (inner membrane ring protein) in the purified needle complex (natural protein)
chain: METSKEKTITSPGPYIVRLLNSSLNGCEFPLLTGRTLFVVGQSDALTASGQLPDIPADSFFIPLDHGGVNFEIQVDTDATEIILHELKEGNSESRSVQLNTPIQVGELLILIRPESEPWVPEQPEKLETSAKKNEPRFKNGIVAALAGFFILGIGTVGTLWILNSPQRQAAELDSLLGQEKERFQVLPGRDKMLYVAAQNERDTLWARQVLARGDYDKNARVINENEENKRISIWLDTYYPQLAYYRIHFDEPRKPVFWLSRQRNTMSKKELEVLSQKLRALMPYADSVNITLMDDVTAAGQAEAGLKQQALPYSRRNHKGGVTFVIQGALDDVEILRARQFVDSYYRTWGGRYVQFAIELKDDWLKGRSFQYGAEGYIKMSPGHWYFPSPL
notes: PrgH, Salmonella Typhimurium SPI-1 type III secretion system, native protein in the needle complex; Native protein stood in the sample; only 171-364 was modelled; also called PrgH_(171–364); IM rings; source: endogenous, ΔflhD Salmonella SL1344 with HilA on a pBAD plasmid; needle complex purified (LDAO lysis, centrifugation, CsCl gradient, Superose 6); copies: 24
B3: InvG (outer membrane secretin) in the purified needle complex (natural protein)
chain: SEKIPVTGSGFVAKDDSLRTFFDAMALQLKEPVIVSKMAARKKITGNFEFHDPNALLEKLSLQLGLIWYFDGQAIYIYDASEMRNAVVSLRNVSLNEFNNFLKRSGLYNKNYPLRGDNRKGTFYVSGPPVYVDMVVNAATMMDKQNDGIELGRQKIGVMRLNNTFVGDRTYNLRDQKMVIPGIATAIERLLQGEEQPLGNIVSSEPPAMPAFSANGEKGKAANYAGGMSLQEALKQNAAAGNIKIVAYPDTNSLLVKGTAEQVHFIEMLVKALDVAKRHVELSLWIVDLNKSDLERLGTSWSGSITIGDKLGVSLNQSSISTLDGSRFIAAVNALEEKKQATVVSRPVLLTQENVPAIFDNNRTFYTKLIGERNVALEHVTYGTMIRVLPRFSADGQIEMSLDIEDGNDKTPQSDTTTSVDALPEVGRTLISTIARVPHGKSLLVGGYTRDANTDTVQSIPFLGKLPLIGSLFRYSSKNKSNVVRVFMIEPKEIVDPLTPDASESVNNILKQSGAWSGDDKLQKWVRVYLDRGQEAIK
notes: InvG, secretin of the Salmonella Typhimurium SPI-1 type III secretion system, native protein in the needle complex; the final model covers residues 34-557 (N3 domain loop 228-251 disordered); Native protein stood in the sample; 34-557 was modelled (core 176-557 at 3.9 Å); also called InvG_(34–557); InvG_(176–557); source: endogenous, ΔflhD Salmonella SL1344 with HilA on a pBAD plasmid; needle …
B4: PrgI (needle protein), isolated needle filament (natural protein)
chain: MATPWSGYLDDVSAKFDTGVDNLQTQVTEALDKLAAKPSDPALLAAYQSKLSEYNLYRNAQSNTVKVFKDIDAAIIQNFR
notes: PrgI, needle protein of the Salmonella Typhimurium SPI-1 type III secretion system; the model covers residues 3-80 (lacks only the first two N-terminal residues; C-terminal residue Arg80); Helical polymer of many copies; also called the needle; PrgI_(3–80); source: non-flagellated ΔPrgI Salmonella Typhimurium complemented with PrgI and hilA on pBAD plasmid; filaments removed by vigorous stirring, …
B5: PrgI (needle protein) in the purified needle complex (natural protein, UniProt P41784 1-80, looked up)
chain: B4 chain
notes: PrgI, needle protein of the Salmonella Typhimurium SPI-1 type III secretion system, as part of the native needle complex; Not resolved at high resolution inside the needle complex; the model of the isolated needle was fitted into the C1 map; also called the needle; needle filament; source: endogenous, ΔflhD Salmonella SL1344 with HilA on a pBAD plasmid; needle complex purified (LDAO lysis, …)

Legend:
[1] = target: B2; experiment: cryo-EM structure; purified needle complex; symmetrised reconstructions with atomic models: C24 IM rings 3.6 Å; signal subtraction and focussed refinement of the secretin with C15, 4.1 Å (whole) and 3.9 Å (core); settings: both partners purified
[2] = target: the molecule itself; experiment: as above
[3] = target: B3; experiment: cryo-EM structure; purified needle complex; unsymmetrised C1 reconstruction, 7.4 Å; molecular envelope, needle model fitted with Chimera; settings: both partners purified
[4] = target: the molecule itself; experiment: cryo-EM structure; isolated needle filaments, helical reconstruction in Relion, 3.3 Å (helical rise 4.33 Å, turn 63.34°), de novo model

Binder | binding result [1] | stoichiometry N [2] | binding result [3] | binding result [4]
B1 | binds | 24 | – | –
B2 | – | 24 | binds | –
B3 | – | 15 | – | –
B4 | – | – | – | binds
B5 | – | – | binds | –
